# Experimental data reported in patent publication US10087225B2, “Formulation of MK2 inhibitor peptides” (MOERAE MATRIX, INC., priority 2015, dated 2018).
# Legend:
# Assay in all cases: Kinase Profiling Assay
# Type in all cases: biochemical
# Settings in all cases: for % activity: 100 μM
# ARK5(h) = biological target: T1, ARK5(h) (Homo sapiens, UniProt O60285)
# T1 sequence (O60285 1-661): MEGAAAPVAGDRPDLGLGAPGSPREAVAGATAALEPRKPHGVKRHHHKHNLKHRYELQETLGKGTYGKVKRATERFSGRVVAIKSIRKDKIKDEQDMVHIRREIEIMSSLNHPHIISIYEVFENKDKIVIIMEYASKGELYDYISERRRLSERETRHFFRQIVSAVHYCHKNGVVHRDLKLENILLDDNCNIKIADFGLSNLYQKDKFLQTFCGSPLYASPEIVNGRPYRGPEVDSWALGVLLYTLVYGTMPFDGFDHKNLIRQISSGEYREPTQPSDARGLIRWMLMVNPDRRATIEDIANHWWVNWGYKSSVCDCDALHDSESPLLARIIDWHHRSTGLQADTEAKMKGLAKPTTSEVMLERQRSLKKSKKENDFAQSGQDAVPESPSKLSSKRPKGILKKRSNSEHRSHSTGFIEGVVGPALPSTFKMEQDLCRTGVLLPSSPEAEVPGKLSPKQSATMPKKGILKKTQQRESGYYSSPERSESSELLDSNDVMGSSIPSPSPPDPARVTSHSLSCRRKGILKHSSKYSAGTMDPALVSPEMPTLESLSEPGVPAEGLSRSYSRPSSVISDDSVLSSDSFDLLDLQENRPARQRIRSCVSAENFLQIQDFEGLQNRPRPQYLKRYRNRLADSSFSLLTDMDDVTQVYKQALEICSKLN
# DMPK(h) = biological target: T2, DMPK(h) (Homo sapiens, UniProt Q09013)
# T2 sequence (Q09013 1-629): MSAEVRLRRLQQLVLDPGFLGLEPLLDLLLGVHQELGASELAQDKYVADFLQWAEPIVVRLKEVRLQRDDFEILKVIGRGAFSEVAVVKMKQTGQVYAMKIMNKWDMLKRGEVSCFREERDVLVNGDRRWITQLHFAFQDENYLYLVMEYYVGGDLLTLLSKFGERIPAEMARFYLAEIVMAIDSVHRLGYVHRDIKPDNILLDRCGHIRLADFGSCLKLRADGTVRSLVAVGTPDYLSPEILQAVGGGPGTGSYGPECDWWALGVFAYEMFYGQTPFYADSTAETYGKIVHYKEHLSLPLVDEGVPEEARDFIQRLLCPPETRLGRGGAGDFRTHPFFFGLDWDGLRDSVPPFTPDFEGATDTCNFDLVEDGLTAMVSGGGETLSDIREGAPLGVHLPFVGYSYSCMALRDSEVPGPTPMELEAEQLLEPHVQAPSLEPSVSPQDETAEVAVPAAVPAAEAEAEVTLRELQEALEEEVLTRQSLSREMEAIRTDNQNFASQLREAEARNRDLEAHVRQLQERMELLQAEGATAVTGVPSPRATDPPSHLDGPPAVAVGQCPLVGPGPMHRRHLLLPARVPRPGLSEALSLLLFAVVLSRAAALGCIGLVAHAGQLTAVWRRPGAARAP
# Tec(h)activated = biological target: T3, Tec(h)activated (Homo sapiens, UniProt P42680)
# T3 sequence (P42680 1-631): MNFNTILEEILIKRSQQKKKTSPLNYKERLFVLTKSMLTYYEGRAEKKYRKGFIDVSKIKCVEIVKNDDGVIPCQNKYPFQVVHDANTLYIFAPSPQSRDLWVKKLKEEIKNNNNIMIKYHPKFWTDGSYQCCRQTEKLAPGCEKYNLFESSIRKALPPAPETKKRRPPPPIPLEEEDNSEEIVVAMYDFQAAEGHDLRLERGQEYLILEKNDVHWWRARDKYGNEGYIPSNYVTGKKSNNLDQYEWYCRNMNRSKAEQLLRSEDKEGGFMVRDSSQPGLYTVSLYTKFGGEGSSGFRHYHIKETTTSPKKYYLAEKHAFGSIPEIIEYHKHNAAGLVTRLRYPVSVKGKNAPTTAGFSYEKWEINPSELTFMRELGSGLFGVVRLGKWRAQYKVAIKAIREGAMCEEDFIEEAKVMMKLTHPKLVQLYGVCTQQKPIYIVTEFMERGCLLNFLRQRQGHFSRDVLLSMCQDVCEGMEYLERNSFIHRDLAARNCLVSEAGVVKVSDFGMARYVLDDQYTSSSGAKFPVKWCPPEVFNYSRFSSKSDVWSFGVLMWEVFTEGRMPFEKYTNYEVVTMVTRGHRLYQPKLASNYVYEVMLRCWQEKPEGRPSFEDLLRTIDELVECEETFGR
# PKCδ(h) = PKCδ(h) (Homo sapiens, UniProt Q05655)
# Bmx(h) = biological target: T4, Bmx(h) (Homo sapiens, UniProt P51813)
# T4 sequence (P51813 1-675): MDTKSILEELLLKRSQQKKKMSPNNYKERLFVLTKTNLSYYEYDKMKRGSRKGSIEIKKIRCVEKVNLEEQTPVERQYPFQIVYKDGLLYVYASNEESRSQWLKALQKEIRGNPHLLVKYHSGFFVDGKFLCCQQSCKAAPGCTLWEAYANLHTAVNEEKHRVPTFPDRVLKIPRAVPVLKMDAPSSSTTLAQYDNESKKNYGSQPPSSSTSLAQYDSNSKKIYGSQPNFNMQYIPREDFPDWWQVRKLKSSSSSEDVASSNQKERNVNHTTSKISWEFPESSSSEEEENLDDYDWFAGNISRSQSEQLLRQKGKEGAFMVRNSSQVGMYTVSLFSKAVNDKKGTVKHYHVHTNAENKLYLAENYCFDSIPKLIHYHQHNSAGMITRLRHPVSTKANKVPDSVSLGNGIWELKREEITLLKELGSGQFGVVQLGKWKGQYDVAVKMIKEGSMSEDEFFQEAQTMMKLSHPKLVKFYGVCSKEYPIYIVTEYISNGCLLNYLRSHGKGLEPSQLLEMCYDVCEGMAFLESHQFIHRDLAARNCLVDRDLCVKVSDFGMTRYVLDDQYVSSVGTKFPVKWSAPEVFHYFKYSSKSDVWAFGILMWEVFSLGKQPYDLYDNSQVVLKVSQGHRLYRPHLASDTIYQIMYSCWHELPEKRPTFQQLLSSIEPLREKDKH
# Chain of PKCδ(h) (Q05655 whole entry): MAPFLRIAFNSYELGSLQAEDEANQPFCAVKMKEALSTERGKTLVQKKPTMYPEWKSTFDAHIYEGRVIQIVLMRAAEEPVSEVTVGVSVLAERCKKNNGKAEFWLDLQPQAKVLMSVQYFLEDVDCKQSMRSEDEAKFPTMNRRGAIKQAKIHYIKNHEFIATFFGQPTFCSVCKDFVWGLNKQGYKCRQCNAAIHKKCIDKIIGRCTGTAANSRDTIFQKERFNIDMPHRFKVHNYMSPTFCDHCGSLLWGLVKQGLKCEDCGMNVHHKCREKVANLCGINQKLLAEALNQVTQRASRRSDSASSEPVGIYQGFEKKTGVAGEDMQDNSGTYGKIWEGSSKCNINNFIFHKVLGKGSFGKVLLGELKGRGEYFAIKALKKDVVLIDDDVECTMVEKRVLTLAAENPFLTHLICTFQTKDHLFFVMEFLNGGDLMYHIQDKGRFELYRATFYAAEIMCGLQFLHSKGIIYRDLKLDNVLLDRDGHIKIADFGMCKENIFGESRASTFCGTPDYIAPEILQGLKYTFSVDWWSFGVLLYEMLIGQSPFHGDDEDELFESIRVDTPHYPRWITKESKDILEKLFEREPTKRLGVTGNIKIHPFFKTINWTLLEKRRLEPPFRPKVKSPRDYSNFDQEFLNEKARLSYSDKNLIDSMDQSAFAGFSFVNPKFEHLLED
Substance,% activity (ARK5(h)),% activity (DMPK(h)),% activity (Tec(h)activated),% activity (PKCδ(h)),% activity (Bmx(h)),activity at 100 µM (ARK5(h)),activity at 100 µM (DMPK(h)),activity at 100 µM (Tec(h)activated),activity at 100 µM (PKCδ(h)),activity at 100 µM (Bmx(h))
HRRIKAWLKKIKALARQLGVAA (Mammalian) [MMI-0500],20%,12%,33%,61%,45%,–,–,–,–,–
YARAAARQARAKALNRQLGVA (Mammalian) [MMI-0200],93%,66%,77%,101%,76%,–,–,–,–,–
H-YARAAARQARAKALARQLGVAA-OH [MMI-0100],–,–,–,–,–,108%,60%,100%,100%,62%
